This passage reports screen value results from paper PMC8979966.

The target of the first assay is TCR 868 (single-chain Vbeta-linker-Valpha). The experiment in a line: YAMTAD: yeast mating between pMHC-displaying and TCR-displaying yeast, diploid selection, deep sequencing; 3 biological x 4 technical repeats. To be noted: S. cerevisiae mating; TCR 868 group vs control TCR A6 group; higher = more enriched with TCR 868 than with the control TCR A6; not monotonic in affinity (misses both ways); not an affinity; keep out of graded; partner unresolved; scale: ratio: mean frequency with TCR 868 / mean frequency with control TCR A6, each normalised to the 3* stop peptide; numbering: sequential-on-construct, sequence starts at 1.
As for “SL9 peptide (HIV-1 Gag, […]) presented by HLA-A*02:01 3A (SLANTVATL; codon GCG)”, the screen value came to 1.01. The same measure, in the same setting: with “SL9 peptide (HIV-1 Gag, […]) presented by HLA-A*02:01 3A (SLANTVATL; codon GCT)” the figure was 1.12; with “SL9 peptide (HIV-1 Gag, […]) presented by HLA-A*02:01 3C (SLCNTVATL; codon TGT)”, 1.1. The same measure, in the same setting: with “SL9 peptide (HIV-1 Gag, […]) presented by HLA-A*02:01 3D (SLDNTVATL; codon GAT)” the figure was 1.15; with “SL9 peptide (HIV-1 Gag, […]) presented by HLA-A*02:01 3E (SLENTVATL; codon GAG)”, 0.967.

For the substance “SL9 peptide (HIV-1 Gag, […]) presented by HLA-A*02:01 3F (SLFNTVATL; codon TTT)”, the screen value worked out at 2.02. The same measure, in the same setting: with “SL9 peptide (HIV-1 Gag, […]) presented by HLA-A*02:01 3G (SLGNTVATL; codon GGG)” the figure was 0.959; with “SL9 peptide (HIV-1 Gag, […]) presented by HLA-A*02:01 3G (SLGNTVATL; codon GGT)”, 0.969; with “SL9 peptide (HIV-1 Gag, […]) presented by HLA-A*02:01 3H (SLHNTVATL; codon CAT)”, 1.25.

Regarding “SL9 peptide (HIV-1 Gag, […]) presented by HLA-A*02:01 3I (SLINTVATL; codon ATT)”, the screen value stood at 1.28. Same read-out and setting: the value for “SL9 peptide (HIV-1 Gag, […]) presented by HLA-A*02:01 3K (SLKNTVATL; codon AAG)” was 1.21. Same read-out and setting: with “SL9 peptide (HIV-1 Gag, […]) presented by HLA-A*02:01 3L (SLLNTVATL; codon CTG)” the figure was 1.89; with “SL9 peptide (HIV-1 Gag, […]) presented by HLA-A*02:01 3L (SLLNTVATL; codon CTT)”, 2.02; with “SL9 peptide (HIV-1 Gag, […]) presented by HLA-A*02:01 3L (SLLNTVATL; codon TTG)”, 1.84. Same read-out and setting: with “SL9 peptide (HIV-1 Gag, […]) presented by HLA-A*02:01 3M (SLMNTVATL; codon ATG)” the figure was 1.16; with “SL9 peptide (HIV-1 Gag, […]) presented by HLA-A*02:01 3N (SLNNTVATL; codon AAT)”, 0.989. For “SL9 peptide (HIV-1 Gag, […]) presented by HLA-A*02:01 3P (SLPNTVATL; codon CCG)”, the screen value came out at 1.03. The same measure, in the same setting: with “SL9 peptide (HIV-1 Gag, […]) presented by HLA-A*02:01 3P (SLPNTVATL; codon CCT)” the figure was 0.983; with “SL9 peptide (HIV-1 Gag, […]) presented by HLA-A*02:01 3Q (SLQNTVATL; codon CAG)”, 1.16; with “SL9 peptide (HIV-1 Gag, […]) presented by HLA-A*02:01 3R (SLRNTVATL; codon AGG)”, 1.06. Same read-out and setting: with “SL9 peptide (HIV-1 Gag, […]) presented by HLA-A*02:01 3R (SLRNTVATL; codon CGG)” the figure was 1.09; with “SL9 peptide (HIV-1 Gag, […]) presented by HLA-A*02:01 3R (SLRNTVATL; codon CGT)”, 1.04. Still for that read-out and setting: with “SL9 peptide (HIV-1 Gag, […]) presented by HLA-A*02:01 3S (SLSNTVATL; codon AGT)” the figure was 1.08; with “SL9 peptide (HIV-1 Gag, […]) presented by HLA-A*02:01 3S (SLSNTVATL; codon TCG)”, 1.06. In the case of “SL9 peptide (HIV-1 Gag, […]) presented by HLA-A*02:01 3S (SLSNTVATL; codon TCT)”, the screen value came out at 1.08. On the same count and under the same terms, with “SL9 peptide (HIV-1 Gag, […]) presented by HLA-A*02:01 3V (SLVNTVATL; codon GTG)” the figure was 1.11; with “SL9 peptide (HIV-1 Gag, […]) presented by HLA-A*02:01 3V (SLVNTVATL; codon GTT)”, 1.16; with “SL9 peptide (HIV-1 Gag, […]) presented by HLA-A*02:01 3W (SLWNTVATL; codon TGG)”, 1.2.

The target is the same in another assay.
Test: not given
The following applies: higher = more enriched with TCR 868 than with the control TCR A6; not monotonic in affinity (misses both ways); scale: ratio: mean frequency with TCR 868 / mean frequency with control TCR A6, each normalised to the 3* stop peptide; numbering: sequential-on-construct, sequence starts at 1.
Consider “SL9 peptide (HIV-1 Gag, […]) presented by HLA-A*02:01 3T (SLTNTVATL; codon ACG)”, for which the screen value is 1.07. The same measure, in the same setting: the value for “SL9 peptide (HIV-1 Gag, […]) presented by HLA-A*02:01 3T (SLTNTVATL; codon ACT)” was 1.11.
